A short description of this data set: protease stability score; higher = more stable; yeast display proteolysis, trypsin and chymotrypsin.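 Further: relative to predicted unfolded state with 0 unfolded-like and 1 meaning tenfold more protease.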
“DEDERLSRELLKRWMTSIMTGDETSSQHLADPHDRIDINGREFHGRELATWVAHHLRIDSIQERHQEIQGEKLIVLGETDYIVDGVKQIRRTEYILRKFNGRWFFESIIFR” registered a protease stability score of 0.9. In the case of “DEEHEFMRKMSEEFVHIWLTGDEERLIKLLDPNAKLNIDGVEHHGWKEVHRYLKELKEELGVDHFHVRRITIRYIDGVAISIVHYESHINGRHHELEIHNVVNKIDGRWHLQSIHIHFH”, the protease stability score came to 2.16. In the case of “TEESQIALEVLIKTARNKYTGDEDSVRHMADPNVQLHFDGQEIHGMDIIRKMIKHIRIDIEDSRSRDHHVQGDKIHDQTEVVLLIEYNGVHIRRQVRVHIHIWKINGRWILHSEIFE” it was 1.41. For “DEQSRVSEEVIKIWLESVNTGDEKSLSELIDPNVKIHVNGKKMHGWRDAEDHARRIDHMHVEDFKIESIQTQGDFAILHGRLVYSRIVNGVELHSDEHVEMVILKYNGRWSIEEVRVR” the value was 1.27.

In the case of “DDMQEIVLRIAEELIHRETTGDEEFIKRLLDPRVRLEINGVDSIGMEEFWRFLFEEEHKLGVDHVRFDIKHIRVVDGRAHSIGILNLNINGKEHRFDVRIDIVVIDGRVREVRIEIR”, the protease stability score was 2.51.

Regarding “HEEHKHVKELAEMLIEWFLTGDEETTLDMADPDVRIDINGVDKIGRETVVEFKKRQHRDLGWDNIRFRPTHINAFDGRINIEGVIIVNGVTFKTEFRFEVINGRLKLDKWIVR”, the protease stability score came out at 0.661. “DEDEDFIRHQIQLYIELFETGDWRSLKRLADPNARHHINGRDLHGMDLFRRHIEHMGIKIKHIKLRDMRVIGDKIELKVENNVEIDGRERSLEEEIIARKIDGRWILESSTIR” gave a protease stability score of 0.39. Sequence “SEDEELLHKVLNEFIHNVKTGDWEIITRLLDPHALLRVNGVNHIGREDLDRQLKKDFQEMRLHNIHVDDLKIQGEWIHVDTTLDIHINGVRVHFKAHIRVLKIDGRWIVHSREIR” had a protease stability score of 1.32.

In turn, “SELEELSKHHLELLTHSHRTGDEKSFVELLDPHARIHQGDFHFHGRKLIDEFFRQARIHHIHVDDSELQGNWVFVHGRVEGNFNGVRSKITTHIIELKVNGRWLLHNVHIA” yielded a protease stability score of 0.779. For “SEEEKHFEDALERWIRTTDTGDETKLIELMDPHVKVDINGQEFHGWKIVFRFMHHLIRRIDHIIIEVKHLRVYDGRVELDGIIRVRFDGRQMEYNSRFIALKFNGVWLLHSMHFH” the value was 1.87; for “TEEEEHIRRLAEELMHNIRTGDEDTLVDLFDPDTKLHVHQGDKEIVFHGMEEIFDWWEKLLSEIRIEIRIRSIKYIGDKAHVHTEVIWRFNGREHRIESEIEFVLINGKVERIHISFI”, 2.27; for “DEDEESATKFTRELIHHTRTGDEESLKELADPNVRIDFNGVEIHGMEWWLKLHVHLGAKIILRLKDIETIGDKVHIHGEREIRVNGKNIRTKIRILVEKVDGRWVLKHEELG”, 1.21. Regarding “HEQDEAWDVINRDLAQSIETGDEHTERELLDPNVRIDFDGVKLHGRDEWHDFVRKELEHLGVDRIDIRIEIHNSKYQGEKVDSDTELKIRYGDKHVRIKTRLILHKIDGRWLVKSIQIN”, the protease stability score was found to be 1.1. For “SEEREEFEHWAKLVVHLLLTGNWEDFVKLLDPDTRFRDEDEETVGREEVEKAVNRLLDRVDHIKSVHIRHLDVINGRAFMHGQLVGHVDGRETHTEVRIKLVVVNGRIKSLQIDYK”, the protease stability score was found to be 1.99. In the case of “SEEEEMDRHYSNLWNHLMFTGDWHWLEKLVDPHTRTIVDGQERHGREEALKVLKEVLEILGADVIRIHEMRYQGEKSNLVIEIKQGDKRLRVVIEVVVIDGVMHSLDLEIRHE” it was 0.795; in that of “HEDDELLRQNVKVLLDMVETGDEHTLENMLDPHVRFEAENHHHHGRENLIRALKELLTRLGVKHWRSFEVERIDIQGDFIFLDTVFIMEVDGRKRKIKIHIVARKINGRWLIESIRLD”, 1.48; in that of “SDLDQEMKTWLEETIRLLNTGNEEEWTKLADPNARVEIGDKHYHGWESLEELRKIFGVEKIDYRFTRIEVQGEKADSDVRIEVNGRELHVRLIIVVVNGRHKSMRVIFG”, 1.99.

As for “SEEEELLRRITDEMIESMLTGDEKYILENVDPNVRLHIGDKTYVGWETYEDHMRERLEKLGADHMKLEHKDHQGNYTLIEGNLSFNGRELEVRIKLIIVNGVLEQVEVRFD”, the protease stability score turned out to be 0.955.

In the case of “DEEEELLTRTSELFSHNLHTGDEDSLIHLADPHTRIDVDGVQLHGMETWSEQFSRDMHEHGARSEVHYKRREVVGDKAKIHLVLTITYNGRTIIRNIELRMTKIDGVWILRHISYH”, the protease stability score is 1.26.

Consider “DEDVKLALHIIHLFIRALSTGNEELVKTYADPHWRLEIGDKILHGMDEWKEDLKELRIYYHHVTFRDYEIIDGRIIIHTELDGRLEVGDYEQRIRTRTHVFVDKINGRWDITHVEVR”, for which the protease stability score is 1.2. In the case of “DDEKKHALEVVRKYFRAFLTGDEDESFELMDPRVKVDINGRDIHGWEEYRKWMEEIRIHDHRVKEEHFRVYDGRLIIIIRGELNGEINGRRFEFEFNIIIVVAKVDGQWRTESFKMEIH” it was 1.31; in that of “DESEELTKEAKRVYYETMRTGDEHNLKRLMDPNTRMDFNGVEFHGREAVKILVEQADHLEDVRIKRERVDEHEVELHGEFHGKVNGRHTTTHVILFWLKYNGRWRVKELQVR”, 0.84; in that of “DREEEELKRIMHLFINFVETGDWELILKLMDPNVKMQIDFNGKIFRNHGRDALEYTIRLMGIDHIEIHHQDVIDGKLHIDVTVHIDGQDLRVHIHVIVIDGRIREVRHRTH”, 1.23.

Sequence “HEEEESFKNALEMWIRTVKTGDEKLESDLLDPDARLIFNGQEFHGRELVKKILIDWRKELRVRDFELRDFHIQGDKIYIDGTMFVEINGQTETRKIVIVFVKVNGRWLIHQVTFH” gave a protease stability score of 2.24. The sequence “SEIERDVHELIKEVSELTHTGNEEHSKMLLDPNYRVEIGDKTIHGRHLVSHWIKQMRSDITVEIREVRLIDGRLLADIRFVVRIRFDGVELHIEERRVLFWLKVDGQWIIESQRVH” returned a protease stability score of 0.827. For “DETTELVHEVWRVHLESLMTGDFDKFHELADPNAKVDVHYDGRRDDNHGREKLSHQIKRILQEWRVTIRINREDAIGNKLHVDSDLRVNYDGVEIRVRLLSIIVVVNGRFKSIEYHVL”, the protease stability score stood at 1.29. Turning to “TEDETIAELALEEFIRILETGDEDDVNRLLDPHVRVDIDGKEIHGREHVYHHLRNLGVRIKIEWKRIRVVDGKVDSDGHVIERFNGRDIEVKSQFIMRKIDGRWVVHHFTRR”, the protease stability score stood at 0.488.

“DERESLLEKLLRLWIELLKTGDEDTMLKLADPDAKYHVNGKDFHGWELASRIWFEERERLGIKHVHDHEIRFQGEKTELHGILLFDGVDVKFRIIIIVFNGRLHHVIVERD” yielded a protease stability score of 1.53. In the case of “DTDQTLFEDYAKMYMKDLLTGDFESIEKYADPRVQVHIGDKEIHGREIFVKYLWEHNEQVDHRQFHFKDVDHFDGKIHVHMEMHIDVNGKLINEKLHVIIWKFNGRWIMKSVHHR”, the protease stability score came out at 0.78. Consider “DEDEKEAHELSRTIIESWLTGDEDSLSEMMDPHTRSDVNGRISHGREEASRVWHEEMRKLGVKHYEIKRVHSRVIDGRLDLHIYSRMHINGVSRSVELIFHIEKVNGRWLIKEVRVHLL”, for which the protease stability score is 1.25. In turn, “SEEHEDAEKWIRILLRDLKTGDEESLFQLLDPHTKLEVGDKHFHGREQVMRYVLHELKRVDHMEVELKHHHIQGEKAHLDIEVHNIFDGRVFVKHVHIDSKKINGRWRQEKIYIE” showed a protease stability score of 1.33. In the case of “SESERATRHALRLLWDILLTGDEETWEKMADPNVRVEIGNFHDHGMDSMRLLFHLLLERIDHIHDFTVRHSHSQGDKVENHTEIEVRQGDKSLNITTVFVYVKINGRWINKRVIFK”, the protease stability score worked out at 0.999. “TELETELEHMVKIVIDSLLTGDEKKLHKQADPHVRHSQGEFEWHTREAMIRFFFELGIDHMTLTEIHLQGDFVEMHIENNINGRRVELRIHWHKFNGKWINRRTHVRHI” came in with a protease stability score of 0.698.

“DEDQKEAEDMAELITKLINTGDEEHWLDRADPHMKVDIDGVESVGREEIERLLHELIRKWGVSKIESRNKHVTIINGRVHFRINIHVNGQEYLLILINDKVDGRWRVQETRVHIT” yielded a protease stability score of 1.63. In the case of “DNESHLAEEWFRWFIDWMQTGNEEETRKFADPNVRFDINGVEIHGMKLYEDHIKHLGFRQDIRIRHIDTYDGQVDVDTEVRINVNGVEIRHKTRTNLIMIDGKLKTLTVKLE” it was 1.01; in that of “DEWTHVLHEMLKLLLDAWDTGDEKVLHRMMDPNAKSEINGREFVGMHHISTWLKRERDRLGVEIHIHVRRINFQGDKLEVDSHFNVIIGDKEFHRSTRIELIIVNGRVHSLHIKID”, 0.212.

Sequence “TEEEKEVEDLLRVVIHALQTGDEKKISELVDPNMRVKIGDKINHGWENAFEFHVRFIKELGVDHINIHPRHVRLIGDKVEVHLNLIIHVNGRDHETEIRLTAIKVNGRWHIESFEEQ” yielded a protease stability score of 1.91. In the case of “SDYTEVAHEIMDEWSKAILTGDEDTVEELLDPNVRVDINGQEIHGWETIFKKLRRFVDELGIDHVHVNTKRVKLIGNYIHVDGELRYHQGDFHIVRKVRLLIVKINGQWLIREINLK” it was 2.42; in that of “HELVEEAITMWKEMLVDELTGDEKKTSQNLDPNYKMVIDGQEIHGMEEWSRFLKEIRLHHEDFHVKDARVIDGRVKIDGHIKGTLEINGKRTRTETDVHIILIKINGRWVTHSVHFK”, 1.24. Sequence “SESHDLLEEFVRLILHLWRTGDEEILHNMADPNTQMHIGDKTYHGREEAVDVIHKLLKHLRFKHLHIDHIDIQGDWVRITGHLHVKVDGREIQREVSSVVIKINGRWILRSERID” gave a protease stability score of 2.27. In the case of “DEDKKIWKHWLEIFVRWFLTGDFDKLRENADPNARSDINGKELHGMETFVEAMRELGFKHVEIHDVHIQGNKVHLDTRVLFDGQHHTTHLHVHIVNGRLKEISIEIR” it was 1.26.

On to “DEDKDVTKRLFELLRQADETGDEHTMTRLLDPHAQLVVNGRRVHGMEFVWELLLRLRHRYDHSHWRLHDARTQGEYMHLDVRLHLNIDGKRVNIEMHLIILKIDGVWFVHSVEIH”, for which the protease stability score came out at 0.45. Regarding “TEEEHIIDDFDKRLLHAFVTGNEDLLAKLADPNVRLSVKIGDKTIERHGMESFRNWLRRFHEEIRIEDHKSDEVRFYNGVLEHHGTVLGHVNGVRTKVHVLEIYFIINGRMRNIWIEVR”, the protease stability score is 1.54. “SEEEKLFKIMMKLLLEQTETGDEHFLKHQFDPHARLEIGEFDLHGWEFMDEHVRHWRYRDMELRRLEFQGNKIETRGLIIGEYNGRRLEISVRMIVLKIDGKWIIKHVHIH” returned a protease stability score of 1.42.

The sequence “DEDEEEMEKMSREISEMLLTGDFDRLLELLDPNYRLRIGDKDLHGREEAKKHMHELFRHLGVDKFEVRLKQVELVDGVIWVHIEQRYDGRDFQIHVINKKIDGRWHVRRVEFE” showed a protease stability score of 1.72.

Take “DDEEEDYERAFKIFIDFVKTGDWRLLKELADPNVRNVIGDKEFMGRETFTKWVFDVRAQFDHVEIRIRDFEIQGNKLILYTELHLHQGDKSLTLELRIVILKVNGKWLMHSFRLQ”: the protease stability score is 1.4. In turn, “DEEEIHNRLAYRLSHELLETGDWHLMILLADPHVRFEDENHEAHGREEYKEHLNEIHELLGLEKFEVRIHSWRVYDGRVIVHGHILFNGVEFNVETVSLKFNGRWIIEEQRLE” had a protease stability score of 1.36.

These data come from the NTF2 design screens of Basanta et al. (2020).
